Assay results taken from PMC9121386.

Biological target: 80S ribosome (purified 80S ribosomal fraction from H1299 cells) (human (endogenous in H1299))

Chain of fragile histidine triad (Fhit), wild type (P49789 whole entry): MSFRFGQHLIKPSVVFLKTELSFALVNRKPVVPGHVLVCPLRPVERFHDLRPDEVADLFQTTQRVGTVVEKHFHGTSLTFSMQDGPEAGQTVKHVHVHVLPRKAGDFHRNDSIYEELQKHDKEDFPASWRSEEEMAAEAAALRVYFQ

Question: With “fragile histidine triad (Fhit), wild type (from UniProt P49789 1-147) (enzyme)” as the substance, how does the turnover of Ap3A by Fhit (RP-HPLC) with 80S ribosomes pre-incubated with RNaseA read?
Answer: < 5%
